Assay: yeast display, Sf9 membrane polyspecificity reagent, FACS + sequencing; frameworks hold sequencing errors
Method in brief: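 Using colony PCR, genes from sorted yeast display clones were amplified, then sequenced on MiSeq at 2 × 250 and filtered by CDR length. The clones had been stained with 10% biotinylated, detergent-solubilized Sf9 membrane reagent for 1 hour at 4 °C and sorted by FACS into low and high (top ~1%) gates on anti-HA and streptavidin fluorescence. Polyreactivity labels come from the gate of origin.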

Sequence: QVQLVESGGGLVQAGGSLRLSCAASGRTFGGNVMGWYRQAPGKERELVAAITWSGGRTYYADSVKGRFTISRDNAKNTVYLQMNSLKPEDTAVYYCNARNGFTVKKFYYWGQGTQVTVSS
- polyreactivity (PSR sort gate): high polyreactivity

Sequence: QVQLVESGGGLVQAGGSLRLSCAASGRTFGGYAMGWYRQAPGKERELVADITSSGSTTYYADSVKGRFTISRDNSKNNVYLERYSLKPEDTAVYYCNAEGYSPVLYDYWGQGTQVTVSS
- polyreactivity (PSR sort gate): low polyreactivity

Sequence: QVQLVESGGGLVQAGGSLRLSCAASGRTFGGYAMVWYRQAPGKERELVATITKNGGSTYYADSVKGRFTISRDNAKNTVYVQMNSLKPEVTAVYYCATGSRGYKASPQWRDYWGQGTQVTVSS
- polyreactivity (PSR sort gate): high polyreactivity

Sequence: QVQLVESGGGLVQAGGSLRLSCAASGRTFGHNAMGRYRQAPGKEREFVAAITRRGGSTYYADSVKGRFTISRDNAKNTVYLQMNSLKPEDTAVYYCATRDYVNGPGIFNYWGQGTQVTVSS
- polyreactivity (PSR sort gate): low polyreactivity

Sequence: QVQLVESGGGLVQAGGSLRLSCAASGRTFGINAMGWYRQAHGKERELVAVISFGDGGTYYADSVKGRFTISRDNAKNTVYLQMNSLKPEDTAVYYCATDYQSTSVWGGHFVINPYDYWGQGTQVTVSS
- polyreactivity (PSR sort gate): low polyreactivity

Sequence: QVQLVESGGGLVQAGGSLRLSCAASGRTFGIYAMGWYRQAPGKERELVAAITGRGGSTHYADSVKGRFSISRDNAKNTVYLQMNSLKPEDTAVYYCAADYRYNRGITSNKDYDYWGQGTQVTVSS
- polyreactivity (PSR sort gate): low polyreactivity

Sequence: QVQLVESGGGLVQAGGSLRLSCAASGRTFGKNAMGWYRQAPGKEMEFVAAITSRGGSTYYADSVKGRFTISRDNAKNTVYLQLNSLIPVDTAVYYCYGEYKRPSQRTEHYYWGQGSQVTVSS
- polyreactivity (PSR sort gate): low polyreactivity

Sequence: QVQLVESGGGLVQAGGSLRLSCAASGRTFGKNAMGWYRQAPGKERELVAAISFSGGRTYYADSVKGRFTISRDNANNTVYLQMNSLKPEDTAVYYCAARGSRRGTWYDYWGQGTQVTVSS
- polyreactivity (PSR sort gate): high polyreactivity

Sequence: QVQLVESGGGLVQAGGSLRLSCAASGRTFGKNAMGWYRQAPGKERELVAAISWSGGRTYYADSVKGRFTISRDNAKNTVYLQMNSVKPVDTAVYYCATASYRNPSDYWGQGTQVTVSS
- polyreactivity (PSR sort gate): high polyreactivity

Sequence: QVQLVESGGGLVQAGGSLRLSCAASGRTFGKYAMGWYRQAPGKERELVATISRSGGSTYYADSVKGRFTISRDNAKNTVYLQMNSLKPEDTAVYYCNAVTSRYIWPPVLDRYHYWGQGTQVTVSS
- polyreactivity (PSR sort gate): high polyreactivity

Sequence: QVQLVESGGGLVQAGGSLRLSCAASGRTFGLNVMGWYRPAPGKDRELVATISGVGSTNYADSVKGRFTISRDNAKNTVYLQMNSLKPEDTAVYYCAAGGTSGQEFGYWGQGTQVTVSS
- polyreactivity (PSR sort gate): low polyreactivity

Sequence: QVQLVESGGGLVQAGGSLRLSCAASGRTFGLYSMGWYRQAPGKVRELVASIDWSDDN
- polyreactivity (PSR sort gate): low polyreactivity

Sequence: QVQLVESGGGLVQAGGSLRLSCAASGRTFGNYAMGWYRQAPGKDRELVAALSTTGGRTSYADSVKGRFTISRDNAKNTVYLQMNSLKPEDTAVYYCNVYTTSQARRKRIDYDFWGQGTQVTVSS
- polyreactivity (PSR sort gate): high polyreactivity

Sequence: QVQLVESGGGLVQAGGSLRLSCAASGRTFGNYVMGWYRQAPGKERELVAAIRSGTNTYYADSVKGRFTISRDNAKNTVYLQMNSLKPEDTAVYYCAAARYTKFDYWGQGTQVTVSS
- polyreactivity (PSR sort gate): high polyreactivity

Sequence: QVQLVESGGGLVQAGGSLRLSCAASGRTFGPNAMGWYRQAPGKERELVAAIRYSGGSTYYADSVKGRFTISRDNAKNTVYLQMNSLKPEDTAVYYCAADYVSYVGERGTLYVRYDYWGQGTQVTVSS
- polyreactivity (PSR sort gate): high polyreactivity

Sequence: QVQLVESGGGLVQAGGSLRLSCAASGRTFGPNAMGWYRQAPGKERELVAAISGSGGSTYYADSVKGRFTISRDNAKNTVYLQMYSLKPEDTAVYYCAARHRQQKLDYWGQGTQVTVSS
- polyreactivity (PSR sort gate): high polyreactivity

Sequence: QVQLVESGGGLVQAGGSLRLSCAASGRTFGPYAMGWYIQAPGKERELVAAITWSSGRTYYADSVKGRFTISRDNAKNTVYLQMNSLKPEDTAVYYCNKDRFYRNNYGYGYWGQGTQVTVSS
- polyreactivity (PSR sort gate): high polyreactivity

Sequence: QVQLVESGGGLVQAGGSLRLSCAASGRTFGPYAMGWYRQAPGKEREFVAAISYSGGSTYYADSVKGRFTISRDNAKNTVFLQMNSLKPEDTAVYYCAVDIDSNSGTRDYWGQGTQVTVSS
- polyreactivity (PSR sort gate): low polyreactivity

Sequence: QVQLVESGGGLVQAGGSLRLSCAASGRTFGPYAMGWYRQAPGKERELVAAISRSGSSTYYADSVKGRFTISRDTGKNNVYLQMNSLKPEDTAVYDCAVARSSPEYYYWGQGTQVTVSS
- polyreactivity (PSR sort gate): high polyreactivity

Sequence: QVQLVESGGGLVQAGGSLRLSCAASGRTFGPYVMGWYRQAPGKERELVAAISFSGGSTYYADSVKGRFTISRDNAKNTVYLQMNSLKPEDTAVYYCAARAVGGVRGYRYDYWGQGTQVTVSS
- polyreactivity (PSR sort gate): high polyreactivity

Sequence: QVQLVESGGGLVQAGGSLRLSCAASGRTFGQNAMGWYRQAPGKERELVAAISWRGARTFYADSVKGRFTISRDNAKNTVYLQMNSLKPEDTAVYYCAARYSAYRRNVAYDYWGQGTQVTVSS
- polyreactivity (PSR sort gate): high polyreactivity

Sequence: QVQLVESGGGLVQAGGSLRLSCAASGRTFGQNTMGWYRQAPGIERELVAAINWSGGSTYYADSVKGRFTISRDNAKNTVYLQMNSLKPEDTAVYYCAVRGYWGQGTQVTVSS
- polyreactivity (PSR sort gate): low polyreactivity

Sequence: QVQLVESGGGLVQAGGSLRLSCAASGRTFGRNAMGWYRQAPGKEREFVAAISRRGDTTYYADSVKGRFTISRDNAKNSVYLQMNSLKPEDTAVYYCNAAVIKDRFSWYYYWGQGTQVTVSS
- polyreactivity (PSR sort gate): low polyreactivity

Sequence: QVQLVESGGGLVQAGGSLRLSCAASGRTFGRNAMGWYRQAPGKERELVAAISSDGGRTYYADSVKGRFTISRDNAKNTVYLQMNSLKPEDTAVYYCAKQRSYSDGGYWGQGTQVTVSS
- polyreactivity (PSR sort gate): low polyreactivity

Sequence: QVQLVESGGGLVQAGGSLRLSCAASGRTFGRNAMGWYRQAPGKERELVAAISTSGSRTYYADSVKGRFTISRDNAKNTVYLQMNSLKPEDTAVYYCNAYGVSRGSYGTRGYWGQGTQVTVSS
- polyreactivity (PSR sort gate): high polyreactivity

Sequence: QVQLVESGGGLVQAGGSLRLSCAASGRTFGRNAMGWYRQAPGKVRELVAAINSDGSTYYADSVKGRFTISRDNAKNTVYLQMNSLKPEDTAVYYCAADTWVWTDYFRRFEYWGQGTQVTVSS
- polyreactivity (PSR sort gate): high polyreactivity

Sequence: QVQLVESGGGLVQAGGSLRLSCAASGRTFGRYAMGWYRQAPGKERELVARISFSGGSTHYADSVKGRFTISRDNAKNTVYLQMNSLKPEDTAVYYCNTDWYRNWGKPYYYWGQGTQVTVSS
- polyreactivity (PSR sort gate): high polyreactivity

Sequence: QVQLVESGGGLVQAGGSLRLSCAASGRTFGRYTMGWYRQAPGKERELVAAITGRGGSTFYADSVKGRFTISRDNAKNTVYLQMNSLKPEDTAVYYCAARRTSIKDQFYYWGQGTQVTVSS
- polyreactivity (PSR sort gate): high polyreactivity

Sequence: QVQLVESGGGLVQAGGSLRLSCAASGRTFGRYVMGWYRQAPGKERELVAAISKGGTSPYYADSVKGRFTISRDNAKNTVYLQMNSLKPEDTAVYYCAAGSFARYTYVPRYDYWGQGTQVTVSS
- polyreactivity (PSR sort gate): high polyreactivity

Sequence: QVQLVESGGGLVQAGGSLRLSCAASGRTFGRYVMGWYRQAPGKERELVSAISKGGTSTYYADSVKGRFTISRDNAKNTVYLQMISLKPVVTAVYYCAAGSFARYTYVPRYDYWGQGTQVTVSS
- polyreactivity (PSR sort gate): high polyreactivity

Sequence: QVQLVESGGGLVQAGGSLRLSCAASGRTFGSYAMGCYRPAPVKEREVVAGITWRDGSTYYADSVKGRFTISRDNAKNTDYLQMNSLKPEDTAVYYCAKEAVRYYLFGMEYWGQGTQVTVSS
- polyreactivity (PSR sort gate): low polyreactivity

Sequence: QVQLVESGGGLVQAGGSLRLSCAASGRTFGSYAMGWYRQAPGKEREFVAAIYYGGGRTYYADSVKGRFSISRDNAKNTVYLQMNSLKAVDTAVYYCAADGVYRYNYPYLYTYDYWGQGTQVTVSS
- polyreactivity (PSR sort gate): low polyreactivity

Sequence: QVQLVESGGGLVQAGGSLRLSCAASGRTFGSYVMGWYRQAPGKERELVAAITTSGGRTYYADSVKGRFTISRDNAKNTVYLQMNSLKPEDTAVYYCAAVQLTPTTLYRYYSWGQGTQVTVSS
- polyreactivity (PSR sort gate): high polyreactivity

Sequence: QVQLVESGGGLVQAGGSLRLSCAASGRTFGTNAMGWYRQAPGKERELVASIDLSADSTYYADSVKGRFTISRDNAKNTVYLQMNSLKPEDTAVYYCNKDGYPWPPNLDYWGQGTQVTVSS
- polyreactivity (PSR sort gate): low polyreactivity

Sequence: QVQLVESGGGLVQAGGSLRLSCAASGRTFGTYAMGWSRQAPGKERELVASITWSGTSTYYADSVKGRFTISRDNAKNTVYLQMNSLKPEDTAVYYCAAGWGYYRYYYWGQGTQVTVSS
- polyreactivity (PSR sort gate): high polyreactivity

Sequence: QVQLVESGGGLVQAGGSLRLSCAASGRTFGVNAMGWYRQAPGKERELVAAINRGGSTYYADSVKGRFTISRDNAKNTVYLQMNSLKPEDTAVYYCAAYVSAVHRNSGYWGQGTQVTVSS
- polyreactivity (PSR sort gate): low polyreactivity

Sequence: QVQLVESGGGLVQAGGSLRLSCAASGRTFGVNAMGWYRQAPGKERELVAAINWSADRTYYADSVKGRFTISRDNAKNTVYLQMNSLKPEDTAVYYCAVTQRWYWSYYGSDPSQYGYWGQGTQVTVSS
- polyreactivity (PSR sort gate): low polyreactivity

Sequence: QVQLVESGGGLVQAGGSLRLSCAASGRTFGVYAMGWYRQAPGKERELVAAISRRAGNTYYADSVKGRFTISRDNAKNTVYLQMNSLKPEDTAVYYCAADFSRQYGYWGQGTQVTVSS
- polyreactivity (PSR sort gate): high polyreactivity

Sequence: QVQLVESGGGLVQAGGSLRLSCAASGRTFGVYAMGWYRQAPGKERELVADITSGGGTYYADSVKGRFTILRDNAKNTVYLQMNSLKPEDTAVYYCAARKWYYAYDYWGQGTQVTVSS
- polyreactivity (PSR sort gate): high polyreactivity

Sequence: QVQLVESGGGLVQAGGSLRLSCAASGRTFGWNVMGWYRQAPGKERELVAAISGSGGSTYYADSVKGRFTISRDNAKNTVYLQMNSLKPEDTAVYYCAALYGPGREYDYWGQGTQVTVSS
- polyreactivity (PSR sort gate): low polyreactivity

Sequence: QVQLVESGGGLVQAGGSLRLSCAASGRTFGWTVMGWYRPAPGKDRELVAAISGSGGSTYYADSVKGRFTISRDNAKNTVYLQMNSLKPEDTAVYYCAALYGPAREYDYWGQGTQVTVSS
- polyreactivity (PSR sort gate): low polyreactivity

Sequence: QVQLVESGGGLVQAGGSLRLSCAASGRTFGWYAMGWYRQAPGKEREFVASINTIGGSTYYADSVKGRFTISRDNAKNTVYLQMNSLKPEDTAVYYCAAVGYVIPYDSVGYTTTDYYWGQGTQVTVSS
- polyreactivity (PSR sort gate): low polyreactivity

Sequence: QVQLVESGGGLVQAGGSLRLSCAASGRTFGWYAMGWYRQAPGKERELVAAITYPTGSTYYADSVKGRFTISRDNAKNTVYLQMNSLKPEDTAVYYCAAQGYISAGYKYDYWGQGTQVTVSS
- polyreactivity (PSR sort gate): low polyreactivity
